Experimental findings from US20250163167A1 (SYNTHEKINE, published 2025) are described below.

T1: human IL-10 receptor (hIL-10R alpha and beta chains) on HEK-Blue IL-10 reporter cells (human, UniProt Q13651 22-578; Q08334 20-325)
T1 sequence 1: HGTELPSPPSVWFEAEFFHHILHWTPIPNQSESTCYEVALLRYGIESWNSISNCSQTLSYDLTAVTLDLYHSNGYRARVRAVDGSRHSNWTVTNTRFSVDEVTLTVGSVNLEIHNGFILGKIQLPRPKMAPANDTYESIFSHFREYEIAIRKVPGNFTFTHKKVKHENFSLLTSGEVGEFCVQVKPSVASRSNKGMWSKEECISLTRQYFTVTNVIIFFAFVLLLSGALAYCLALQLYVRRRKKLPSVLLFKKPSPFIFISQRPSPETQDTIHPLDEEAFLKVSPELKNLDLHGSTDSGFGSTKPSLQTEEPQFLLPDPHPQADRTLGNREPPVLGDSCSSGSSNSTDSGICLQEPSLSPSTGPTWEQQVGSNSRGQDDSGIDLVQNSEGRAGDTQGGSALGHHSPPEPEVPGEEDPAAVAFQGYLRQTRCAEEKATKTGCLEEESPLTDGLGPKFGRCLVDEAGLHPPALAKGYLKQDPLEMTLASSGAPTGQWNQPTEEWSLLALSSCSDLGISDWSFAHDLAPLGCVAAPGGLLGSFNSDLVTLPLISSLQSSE
T1 sequence 2: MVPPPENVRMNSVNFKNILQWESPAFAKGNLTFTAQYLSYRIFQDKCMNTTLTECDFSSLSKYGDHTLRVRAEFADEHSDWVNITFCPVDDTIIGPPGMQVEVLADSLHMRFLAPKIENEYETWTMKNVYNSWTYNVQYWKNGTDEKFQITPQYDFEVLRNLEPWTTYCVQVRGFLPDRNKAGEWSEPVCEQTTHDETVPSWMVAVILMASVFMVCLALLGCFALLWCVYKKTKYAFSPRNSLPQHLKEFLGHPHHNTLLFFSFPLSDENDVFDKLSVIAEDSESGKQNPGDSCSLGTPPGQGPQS

B1: IL10R binding molecule of SEQ ID NO: 349 (bispecific antibody)
chain: QVQLQESGGGSVQTGGSLRLSCAASGYTYLRGCMGWFRQAPGKEREGVAVMDVVGDRRSYIDSVKGRFTISRDNAANSVYLQMDNLKPEDTAMYYCTAGPNCVGWRSGLDYWGQGTQVTVSSGGGSQVQLQESGGGSVQAGGSLRLSCAASGYTYSMYCMGWFRQAPGKEREGVAQINSDGSTSYADSVKGRFTISKDNAKNTLYLQMNSLKPEDTAMYYCAADSRVYGGSWYERLCGPYTYEYNYWGQGTQVTVSSASHHHHHH
B2: IL10R binding molecule of SEQ ID NO: 350 (bispecific antibody)
chain: QVQLQESGGGSVQTGGSLRLSCAASGYTYLRGCMGWFRQAPGKEREGVAVMDVVGDRRSYIDSVKGRFTISRDNAANSVYLQMDNLKPEDTAMYYCTAGPNCVGWRSGLDYWGQGTQVTVSSGGGSQVQLQESGGGSVQAGGSLRLSCAVSGYAYSTYCMGWFRQAPGKEREGVAAIDSGGSTSYADSVKGRFTISKDNAKNTLYLRMNSLKPEDTAMYYCAAVPPPPDGGSCLFLGPEIKVSKADFRYWGQGTQVTVSSASHHHHHH
B3: IL10R binding molecule of SEQ ID NO: 353 (bispecific antibody)
chain: QVQLQESGGGSVQTGGSLRLSCAASGYTYLRGCMGWFRQAPGKEREGVAVMDVVGDRRSYIDSVKGRFTISRDNAANSVYLQMDNLKPEDTAMYYCTAGPNCVGWRSGLDYWGQGTQVTVSSGGGSQVQLQESGGGSVQAGGSLRLSCAASGYSNCSYDMTWYRQAPGKEREFVSAIHSDGSTRYADSVKGRFFISQDNAKNTVYLQMNSLKPEDTAMYYCKTDPLHCRAHGGSWYSVRANYWGQGTQVTVSSASHHHHHH
B4: IL10R binding molecule of SEQ ID NO: 343 (bispecific antibody)
chain: QVQLQESGGGSVQAGGSLRLSCAASGYSYSSYCMGWFRQAPGKEREGVATIDSDGMTRYADSVKGRFTISKDNAKNTLYLQMNSLKPEDTAMYYCAAPLYDCDSGAVGRNPPYWGQGTQVTVSSGGGSQVQLQESGGGSVQAGGSLRLSCAVSGYAYSTYCMGWFRQAPGKEREGVAAIDSGGSTSYADSVKGRFTISKDNAKNTLYLRMNSLKPEDTAMYYCAAVPPPPDGGSCLFLGPEIKVSKADFRYWGQGTQVTVSSASHHHHHH
B5: IL10R binding molecule of SEQ ID NO: 348 (bispecific antibody)
chain: QVQLQESGGGSVQTGGSLRLSCAASGYTYLRGCMGWFRQAPGKEREGVAVMDVVGDRRSYIDSVKGRFTISRDNAANSVYLQMDNLKPEDTAMYYCTAGPNCVGWRSGLDYWGQGTQVTVSSGGGSQVQLQESGGGSVQAGGSLRLSCAASRFTYSSYCMGWFRQAPGKEREGVASIDSDGSTSYTDSVKGRFTISKDNAKNTLYLQMNSLKPEDTAMYYCALDLMSTVVPGFCGFLLSAGMDYWGKGTQVTVSSASHHHHHH
B6: IL10R binding molecule of SEQ ID NO: 267 (bispecific antibody)
chain: QVQLQESGGGSVQAGGSLRLSCAASRFTYSSYCMGWFRQAPGKEREGVASIDSDGSTSYTDSVKGRFTISKDNAKNTLYLQMNSLKPEDTAMYYCALDLMSTVVPGFCGFLLSAGMDYWGKGTQVTVSSGGGSQVQLQESGGGSVEAGGSLRLSCAASGYTHSSYCMGWFRQAPGKEREGVAAIDVDGSTTYADSVKGRFTISKDNAKNTLYLQMNSLKPEDTGMYYCAAEFADCSSNYFLPPGAVRYWGQGTQVTVSSASHHHHHH
B7: IL10R binding molecule of SEQ ID NO: 347 (bispecific antibody)
chain: QVQLQESGGGSVQTGGSLRLSCAASGYTYLRGCMGWFRQAPGKEREGVAVMDVVGDRRSYIDSVKGRFTISRDNAANSVYLQMDNLKPEDTAMYYCTAGPNCVGWRSGLDYWGQGTQVTVSSGGGSQVQLQESGGGSVQAGGSLRLSCAASRYLYSIDYMAWFRQSPGKEREPVAVIYTASGATFYPDSVKGRFTISQDNAKMTVYLQMNSLKSEDTAMYYCAAVRKTDSYLFDAQSFTYWGQGTQVTVSSASHHHHHH
B8: IL10R binding molecule of SEQ ID NO: 345 (bispecific antibody)
chain: QVQLQESGGGSVQAGGSLRLSCAASGYSYSSYCMGWFRQAPGKEREGVATIDSDGMTRYADSVKGRFTISKDNAKNTLYLQMNSLKPEDTAMYYCAAPLYDCDSGAVGRNPPYWGQGTQVTVSSGGGSQVQLQESGGGSVQAGGSLRLSCGASGYTYSSYCMGWFRQVPGKEREGVAVIDSDGSTSYADSVKGRFTISKDNGKNTLYLQMNSLKPEDTAMYYCAADLGHYRPPCGVLYLGMDYWGKGTQVTVSSASHHHHHH
B9: IL10R binding molecule of SEQ ID NO: 266 (bispecific antibody)
chain: QVQLQESGGGSVQAGGSLRLSCAASRFTYSSYCMGWFRQAPGKEREGVASIDSDGSTSYTDSVKGRFTISKDNAKNTLYLQMNSLKPEDTAMYYCALDLMSTVVPGFCGFLLSAGMDYWGKGTQVTVSSGGGSQVQLQESGGGSVQAGGSLRLSCTVSRYTASVNYMGWFRQAPGKEREGVATIFTGAGTTYYANSVKGRFTISRDNAKNTAYLQMNSLKPEDTAIYYCAVDFRGGLLYRPAYEYTYRGQGTQVTVSSASHHHHHH
B10: IL10R binding molecule of SEQ ID NO: 265 (bispecific antibody)
chain: QVQLQESGGGSVQAGGSLRLSCAASRFTYSSYCMGWFRQAPGKEREGVASIDSDGSTSYTDSVKGRFTISKDNAKNTLYLQMNSLKPEDTAMYYCALDLMSTVVPGFCGFLLSAGMDYWGKGTQVTVSSGGGSQVQLQESGGGSVQAGGSLRLSCAASRYTYNSYCMGWFRQAPGKEREGVATIDSDGMTRYADSVKGRFTISKDNAKNTLYLQMNSLKPEDTAMYYCAADADCTIAAMTTNPLGQGTQVTVSSASHHHHHH
B11: IL10R binding molecule of SEQ ID NO: 346 (bispecific antibody)
chain: QVQLQESGGGSVQAGGSLRLSCAASGYSYSSYCMGWFRQAPGKEREGVATIDSDGMTRYADSVKGRFTISKDNAKNTLYLQMNSLKPEDTAMYYCAAPLYDCDSGAVGRNPPYWGQGTQVTVSSGGGSQVQLQESGGGSVQAGGSLRLSCAASGYSNCSYDMTWYRQAPGKEREFVSAIHSDGSTRYADSVKGRFFISQDNAKNTVYLQMNSLKPEDTAMYYCKTDPLHCRAHGGSWYSVRANYWGQGTQVTVSSASHHHHHH
B12: IL10R binding molecule of SEQ ID NO: 344 (bispecific antibody)
chain: QVQLQESGGGSVQAGGSLRLSCAASGYSYSSYCMGWFRQAPGKEREGVATIDSDGMTRYADSVKGRFTISKDNAKNTLYLQMNSLKPEDTAMYYCAAPLYDCDSGAVGRNPPYWGQGTQVTVSSGGGSQVQLQESGGGSVQAGGSLRLSCTVSGYTYSSNCMGWFRQAPGKEREGVATIYTGGGNTYYADSVKGRFTISQDNAKNTVYLQMNNLKPEDTAMYYCAAEPLSRVYGGSCPTPTFDYWGQGTQVTVSSASHHHHHH
B13: IL10R binding molecule of SEQ ID NO: 352 (bispecific antibody)
chain: QVQLQESGGGSVQTGGSLRLSCAASGYTYLRGCMGWFRQAPGKEREGVAVMDVVGDRRSYIDSVKGRFTISRDNAANSVYLQMDNLKPEDTAMYYCTAGPNCVGWRSGLDYWGQGTQVTVSSGGGSQVQLQESGGGSVQAGGSLRLSCGASGYTYSSYCMGWFRQVPGKEREGVAVIDSDGSTSYADSVKGRFTISKDNGKNTLYLQMNSLKPEDTAMYYCAADLGHYRPPCGVLYLGMDYWGKGTQVTVSSASHHHHHH
B14: IL10R binding molecule of SEQ ID NO: 351 (bispecific antibody)
chain: QVQLQESGGGSVQTGGSLRLSCAASGYTYLRGCMGWFRQAPGKEREGVAVMDVVGDRRSYIDSVKGRFTISRDNAANSVYLQMDNLKPEDTAMYYCTAGPNCVGWRSGLDYWGQGTQVTVSSGGGSQVQLQESGGGSVQAGGSLRLSCTVSGYTYSSNCMGWFRQAPGKEREGVATIYTGGGNTYYADSVKGRFTISQDNAKNTVYLQMNNLKPEDTAMYYCAAEPLSRVYGGSCPTPTFDYWGQGTQVTVSSASHHHHHH
B15: IL10R binding molecule of SEQ ID NO: 264 (bispecific antibody)
chain: QVQLQESGGGSVQAGGSLRLSCAASRFTYSSYCMGWFRQAPGKEREGVASIDSDGSTSYTDSVKGRFTISKDNAKNTLYLQMNSLKPEDTAMYYCALDLMSTVVPGFCGFLLSAGMDYWGKGTQVTVSSGGGSQVQLQESGGGSVQAGGSLRLSCAASGYTYSSYCMGWFRQAPGKEREGVAHIDSDGSTSYADSVKGRFTISKDNAKNTLYLQMNSLKPEDTAMYYCAADPIPGPGYCDGGPNKYWGQGTQVTVSSASHHHHHH

For the assay, the target named is T1, human IL-10 receptor (hIL-10R alpha and …). As to the kind of experiment: cell-based or functional assay.
Turning to B1, the “Abs 630 (25 nM)” value amounted to 0.46 Abs 630 and the “Abs 630 (100 nM)” value was 0.38 Abs 630.

Turning to B2, the “Abs 630 (25 nM)” value worked out at 0.43 Abs 630 and the “Abs 630 (100 nM)” value was found to be 0.35 Abs 630.

For the molecule B3, the “Abs 630 (25 nM)” value is 0.56 Abs 630 and the “Abs 630 (100 nM)” value turned out to be 0.61 Abs 630.

Consider B4, for which the “Abs 630 (25 nM)” value is 0.46 Abs 630 and the “Abs 630 (100 nM)” value was 0.37 Abs 630.

Turning to B5, the “Abs 630 (25 nM)” value came to 0.46 Abs 630 and the “Abs 630 (100 nM)” value amounted to 0.36 Abs 630.

For B6, the “Abs 630 (25 nM)” value came to 0.75 Abs 630 and the “Abs 630 (100 nM)” value stood at 0.53 Abs 630.

As to B7, the “Abs 630 (25 nM)” value turned out to be 0.45 Abs 630 and the “Abs 630 (100 nM)” value came to 0.35 Abs 630.

On to B8, for which the “Abs 630 (25 nM)” value was found to be 0.52 Abs 630 and the “Abs 630 (100 nM)” value was 0.44 Abs 630.

Turning to B9, the “Abs 630 (25 nM)” value was 0.49 Abs 630 and the “Abs 630 (100 nM)” value came out at 0.39 Abs 630.

As for B10, the “Abs 630 (25 nM)” value worked out at 0.54 Abs 630 and the “Abs 630 (100 nM)” value was 0.46 Abs 630.

Turning to B11, the “Abs 630 (25 nM)” value is 0.43 Abs 630 and the “Abs 630 (100 nM)” value was 0.35 Abs 630.

With B12, the “Abs 630 (25 nM)” value turned out to be 0.5 Abs 630 and the “Abs 630 (100 nM)” value came out at 0.43 Abs 630.

As for B13, the “Abs 630 (25 nM)” value turned out to be 0.54 Abs 630 and the “Abs 630 (100 nM)” value is 0.65 Abs 630.

For B14, the “Abs 630 (25 nM)” value is 0.43 Abs 630 and the “Abs 630 (100 nM)” value came out at 0.34 Abs 630.

As to B15, the “Abs 630 (25 nM)” value was 1.52 Abs 630 and the “Abs 630 (100 nM)” value was found to be 0.67 Abs 630.
